Several values for one entry are separate records, joined by “and”; a condition that tells them apart may be missing. Identical values can stand only once.
Key:
[1] = biological target: T1, human CD3 on cells (Jurkat cells, human T cells) (human, UniProt P07766 23-207); assay: Jurkat cell binding
T1 construct: whole, on cells

[2] = biological target: T1, human CD3 on cells (Jurkat cells, human …); assay: Jurkat cell binding; remark: listed apart in the source
[3] = biological target: T2, cynomolgus monkey CD3 on T cells (cynomolgus monkey, UniProt Q95LI5 22-198); assay: flow cytometry, monkey CD3+ T cells
T2 construct: whole, on cells
Text: (§1) Human PBMCs were freshly isolated from the blood of healthy donors by density gradient centrifugation using Histopaque-1077 (Sigma). Human CD3+ T cells were further isolated from PBMCs using the Human T Cell Enrichment Kit (Stem Cell Technologies). Monkey PBMCs were isolated from a naïve cynomolgus monkey by density gradient centrifugation using Histopaque-1077 (Sigma). Monkey CD3+ T cells were isolated from PBMCs using the Pan T Cell Isolation Kit Non-Human Primate (Miltenyi Biotec). Purified human or monkey CD3+ T cells were stained with the testing antibodies as the primary antibody and the APC-labelled anti-human-Fc antibody (BioLegend) as the secondary antibody. After washing, the cells were analyzed on the CytoFLEX flow cytometer (Beckman Coulter) and the data was analyzed by FlowJo software.

[4] = biological target: T3, human CD20 on cells (human B cells; Raji, SU-DHL-8, SU-DHL-4, A3KAW, NAMALWA) (human, UniProt P11836 1-297); assay: flow cytometry, human B cells
T3 construct: whole, on cells
T3 sequence (looked up): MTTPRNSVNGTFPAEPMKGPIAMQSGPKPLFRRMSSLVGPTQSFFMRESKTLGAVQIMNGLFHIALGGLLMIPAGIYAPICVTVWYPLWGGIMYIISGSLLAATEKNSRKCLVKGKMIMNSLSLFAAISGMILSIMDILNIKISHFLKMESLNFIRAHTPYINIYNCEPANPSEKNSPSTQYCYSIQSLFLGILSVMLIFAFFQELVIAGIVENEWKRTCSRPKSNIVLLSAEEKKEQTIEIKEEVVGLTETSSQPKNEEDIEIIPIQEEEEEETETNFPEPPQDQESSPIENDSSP
Text: (§2) Human and monkey PBMCs were isolated as mentioned above. Human B cells were further isolated from PBMCs using the EasySep™ Human B Cell Isolation Kit (Stem Cell Technologies). Monkey B cells were isolated from PBMCs using the Non-Human B Primate Cell Isolation Kit (Stem Cell Technologies). Purified human or monkey B cells were stained with the testing antibodies as the primary antibody and the APC-labelled anti-human-Fc antibody (BioLegend) as the secondary antibody. After washing, the cells were analyzed on the CytoFLEX flow cytometer (Beckman Coulter) and the data was analyzed by FlowJo software.

[5] = biological target: T3, human CD20 on cells (human B cells; …); assay: flow cytometry, SU-DHL-8 cells
Experimental: (§3) Raji, SU-DHL-8, SU-DHL-4, A3KAW and NAMALWA were B-cell lymphoma cell lines with various CD20 expression levels on cell surface. Briefly, the test antibodies were serial diluted and were incubated with the tumor cells on ice. After washing, the cells were subsequently incubated with the APC-labelled anti-human-Fc secondary antibody (BioLegend) on ice. The cells were then washed with PBS prior to analysis by the CytoFLEX flow cytometer (Beckman Coulter). The data was analyzed by FlowJo software.

[6] = biological target: T3, human CD20 on cells (human B cells; …); assay: flow cytometry, SU-DHL-4 cells
Experimental: as §3

[7] = biological target: T3, human CD20 on cells (human B cells; …); assay: flow cytometry, NAMALWA cells
Experimental: as §3

[8] = biological target: T3, human CD20 on cells (human B cells; …); assay: flow cytometry, Raji cells
Experimental: as §3

[9] = biological target: T1, human CD3 on cells (Jurkat cells, human …); assay: flow cytometry, human CD3+ T cells
Text: as §1

[10] = biological target: T3, human CD20 on cells (human B cells; …); assay: flow cytometry, A3KAW cells
Experimental: as §3

[11] = biological target: T2, cynomolgus monkey CD3 on T cells; assay: flow cytometry, monkey CD8+ T cells
Experimental: (§4) Binding of CD20xCD3 bispecific or SAFE-bispecific antibodies to purified human CD3+ T cells was determined by flow cytometry. Briefly, human or monkey PBMC were freshly purified with Ficoll gradient solution—Histopaque 1077 (Sigma) from a healthy donor and CD3+ T cells were isolated using EasySep™ Human T cell Enrichment Kit (StemCell). Before staining, […] human Fc receptors on CD3+ T cells were blocked with Human Fc Block (BD). Then cells were incubated with fluorescence labeled antibody mixture (APC-Cy7 Mouse Anti-human CD3, PerCP-CyTM5.5 Anti-human CD4 and FITC anti-human CD8) for 15 minutes at 4° C. After washing the cells once with PBS supplemented with 2% FBS, cells were aliquoted to 96-well plates at 2×10⁵ cells per well, and cells were incubated with serial diluted bispecific, SAFE-bispecific or IgG1 isotype control antibodies for 30 minutes at 4° C. After washing the cells twice with PBS supplemented with 2% FBS, cell surface bound antibody was detected by incubating the cells with APC-labeled mouse anti-human IgG Fc secondary antibody for 30 minutes at 4° C. Cells were washed and detected by FACS using Cytoflex (BeckMan) and data was analyzed by FlowJo. The mean fluorescence (MFI) of each antibody binding to human or monkey CD4+ T cells and CD8+ T cell populations were fitted with four-parameter non-linear regression to get EC₅₀ values by GraphPad Prism software.

[12] = biological target: T1, human CD3 on cells (Jurkat cells, human …); assay: flow cytometry, human CD4+ T cells
Experimental: as §4

[13] = biological target: T4, cynomolgus monkey CD20 on B cells (cynomolgus monkey, UniProt M4ZHZ6 1-297); assay: flow cytometry, monkey B cells
T4 construct: whole, on cells
T4 sequence: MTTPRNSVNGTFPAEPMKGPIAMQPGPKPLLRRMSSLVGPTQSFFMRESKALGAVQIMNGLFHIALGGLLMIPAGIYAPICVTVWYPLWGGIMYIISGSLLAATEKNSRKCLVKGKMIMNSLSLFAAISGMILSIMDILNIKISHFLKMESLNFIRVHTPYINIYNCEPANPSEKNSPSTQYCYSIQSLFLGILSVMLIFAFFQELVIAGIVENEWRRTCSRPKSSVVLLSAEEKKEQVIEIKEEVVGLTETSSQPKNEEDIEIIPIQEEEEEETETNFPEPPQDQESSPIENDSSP
Text: as §2

[14] = biological target: T2, cynomolgus monkey CD3 on T cells; assay: flow cytometry, monkey CD4+ T cells
Experimental: as §4

[15] = biological target: T1, human CD3 on cells (Jurkat cells, human …); assay: flow cytometry, human CD8+ T cells
Experimental: as §4

T1 sequence (P07766 23-207): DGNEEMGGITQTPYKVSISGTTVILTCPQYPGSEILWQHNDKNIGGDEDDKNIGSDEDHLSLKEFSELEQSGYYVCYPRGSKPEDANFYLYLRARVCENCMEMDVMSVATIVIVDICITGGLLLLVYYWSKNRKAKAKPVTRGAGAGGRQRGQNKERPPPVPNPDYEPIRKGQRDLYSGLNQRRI
T2 sequence (Q95LI5 22-198): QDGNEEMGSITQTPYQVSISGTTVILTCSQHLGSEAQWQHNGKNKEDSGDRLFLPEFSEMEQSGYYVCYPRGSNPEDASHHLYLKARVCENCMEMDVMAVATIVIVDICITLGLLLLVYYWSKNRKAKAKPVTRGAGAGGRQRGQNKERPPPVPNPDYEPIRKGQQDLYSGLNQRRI

B1: TY25023 (bispecific antibody, human IgG1, kappa, N297A)
light: not shown
heavy: not shown
chain: EAVVTQEPSLTVSPGGTVTLTCGSSTGAVTTSNYPNWVQQKPGQAPRGLIGGTNKRAPGTPARFSGSLLGGKAALTLSGAQPEDEAEYYCALWYSDLWVFGGGTKLTVLGGGGSGGGGSGGGGSGGGGSEVQLVESGGGLVQPGGSLRLSCAASGFTFSTYAINWVRQAPGKGLEWVSRIRSKYNNYATYYAESVKDRFTISRDDSKNTLYLQINSLRAEDTAVYYCVRHGNFGTSYVSWFAYWGQGTLVTVSSEPKSSDKTHTCPPCPAPELLGGPSVFLFPPKPKDTLMISRTPEVTCVVVDVSHEDPEVKFNWYVDGVEVHNAKTKPREEQYASTYRVVSVLTVLHQDWLNGKEYKCKVSNKALPAPIEKTISKAKGQPREPQVYTDPPSRDELTKNQVSLTCLVDGFYPSDIAVEWESNGQPENCYKTTPPVLDSDGSFFLYSKLTVDKSRWQQGNVFSCSVMHEALHNHYTQDSLSLSPGK
notes: also called anti-CD3 variant TY24742
EC50 [1]: > 1000 nM and 480 nM

B2: TY25524 (bispecific antibody, human IgG1, kappa, N297A)
light: not shown
heavy: not shown
chain: EAVVTQEPSLTVSPGGTVTLTCGSSTGAVTTSNYANWVQQKPGQAPRGLIGGTKFRAPGIPARFSGSLLGGKAALTLSGAQPEDEAEYYCALWYSDHWVFGGGTKLTVLGGGGSGGGGSGGGGSGGGGSEVQLVESGGGLVQPGGSLRLSCAASGFTFSTYAINWVRQAPGKGLEWVGRIRSKYNNYATYYAESVKGRFTISRDDSKNTLYLQINSLRAEDTAVYYCARHGNFGTSYVSWFAYWGQGTLVTVSSEPKSSDKTHTCPPCPAPELLGGPSVFLFPPKPKDTLMISRTPEVTCVVVDVSHEDPEVKFNWYVDGVEVHNAKTKPREEQYASTYRVVSVLTVLHQDWLNGKEYKCKVSNKALPAPIEKTISKAKGQPREPQVYTDPPSRDELTKNQVSLTCLVDGFYPSDIAVEWESNGQPENCYKTTPPVLDSDGSFFLYSKLTVDKSRWQQGNVFSCSVMHEALHNHYTQDSLSLSPGK
EC50 [2]: 260 nM

B3: TY25525 (bispecific antibody, human IgG1, kappa, N297A)
light: not shown
heavy: not shown
chain: QAVVTQEPSLTVSPGGTVTLTCGSSTGAVTTSNYPNWVQQKPGQAPRGLIGGTNKRAPGVPARFSGSLLGGKAALTLSGAQPEDEAEYYCALWYSNLWVFGGGTKLTVLGGGGSGGGGSGGGGSGGGGSEVQLVESGGGLVKPGGSLRLSCAASGFTFSSYAINWVRQAPGKGLEWVGRIRSKYNNYATYYAESVKGRFTISRDDSKNTLYLQINSLRAEDTAVYYCVRHGNFGNSYVSYWAYWGQGTLVTVSSEPKSSDKTHTCPPCPAPELLGGPSVFLFPPKPKDTLMISRTPEVTCVVVDVSHEDPEVKFNWYVDGVEVHNAKTKPREEQYASTYRVVSVLTVLHQDWLNGKEYKCKVSNKALPAPIEKTISKAKGQPREPQVYTDPPSRDELTKNQVSLTCLVDGFYPSDIAVEWESNGQPENCYKTTPPVLDSDGSFFLYSKLTVDKSRWQQGNVFSCSVMHEALHNHYTQDSLSLSPGK
EC50 [2]: 6.88 nM

B4: TAC2392 (bispecific antibody)
light: QIVLTQSPSSLSASVGDRVTITCRASSSVSYIHWFQQKPGKSPKPLIYATSNLASGVPVRFSGSGSGTDYTLTISSLQPEDFATYYCQQWTSNPPTFGGGTKVEIKRTVAAPSVFIFPPSDEQLKSGTASVVCLLNNFYPREAKVQWKVDNALQSGNSQESVTEQDSKDSTYSLSSTLTLSKADYEKHKVYACEVTHQGLSSPVTKSFNRGEC
heavy: QVQLVQSGAEVKKPGASVKVSCKASGYTFTSYNMHWVRQAPGQGLEWMGAIYPGNGDTSYNQKFQGRVTITADKSISTAYMELSSLRSEDTAVYYCARSTYYGGDWYFNVWGAGTLVTVSSASTKGPSVFPLAPSSKSTSGGTAALGCLVKDYFPEPVTVSWNSGALTSGVHTFPAVLQSSGLYSLSSVVTVPSSSLGTQTYICNVNHKPSDTKVDKKVEPKSCDKTHTCPPCPAPPVAGPSVFLFPPKPKDTLMISRTPEVTCVVVDVKHEDPEVKFNWYVDGVEVHNAKTKPREEEYNSTYRVVSVLTVLHQDWLNGKEYKCKVSNKALPAPIEKTISKAKGQPREPQVYTLPPSREEMTKNQVSLTCDVSGFYPSDIAVEWESDGQPENNYKTTPPVLDSDGSFFLYSKLTVDKSRWEQGDVFSCSVMHEALHNHYTQKSLSLSPGK
chain: not shown
notes: also called CD20xCD3 bispecific antibody
EC50 [3]: 26.6 nM | max MFI [3]: 3200 MFI | EC50 [4]: 12.6 nM | max MFI [4]: 32300 MFI | EC50 [5]: 48.6 nM | Max MFI [5]: 3640 MFI | EC50 [6]: 26.9 nM | Max MFI [6]: 2.29e+06 MFI | EC50 [7]: 592 nM | Max MFI [7]: 447000 MFI | EC50 [8]: 135 nM | Max MFI [8]: 22000 MFI | EC50 [9]: 6.92 nM | max MFI [9]: 6490 MFI | EC50 [10]: 487 nM | Max MFI [10]: 675000 MFI | EC50 [11]: 58.6 nM | EC50 [12]: 62.1 nM | EC50 [13]: 83.8 nM | max MFI [13]: 6020 MFI | EC50 [14]: 120 nM | EC50 [15]: 37.2 nM

B5: TY24051 (bispecific antibody)
light: not shown
heavy: not shown
chain: QAVVTQEPSLTVSPGGTVTLTCGSSTGAVTTSNYANWVQQKPGQAPRGLIGGTNKRAPGVPARFSGSLLGGKAALTLSGAQPEDEAEYYCALWYSNLWVFGGGTKLTVLRGGGGSGGGGSGGGGSGGGGSEVQLVESGGGLVQPGGSLRLSCAASGFTFNTYAMNWVRQAPGKGLEWVGRIRSKYNNYATYYADSVKGRFTISRDDSKNTLYLQMNSLRAEDTAVYYCVRHGNFGNSYVSWFAYWGQGTLVTVSSEPKSSDKTHTCPPCPAPELLGGPSVFLFPPKPKDTLMISRTPEVTCVVVDVSHEDPEVKFNWYVDGVEVHNAKTKPREEQYASTYRVVSVLTVLHQDWLNGKEYKCKVSNKALPAPIEKTISKAKGQPREPQVYTDPPSRDELTKNQVSLTCLVDGFYPSDIAVEWESNGQPENCYKTTPPVLDSDGSFFLYSKLTVDKSRWQQGNVFSCSVMHEALHNHYTQDSLSLSPGK
notes: also called parental HER2xCD3 bispecific antibody; anti-CD3 variant TAC2225
EC50 [1]: 15.3 nM and 10.2 nM

From patent US20250326860A1 (ADAGENE PTE, published 2025)
